Experiments:
[1] = biological target: purified vaccine protein with HA from influenza A/PR/8/1934 (H1N1), with the C-terminal foldon trimerization domain (influenza A/PR/8/1934 (H1N1) | T4 phage) (UniProt P03452); assay: SEC
[2] = biological target: purified vaccine protein with HA from influenza A/PR/8/1934 (H1N1), with the C-terminal foldon trimerization domain (influenza A/PR/8/1934 (H1N1) | T4 phage) (UniProt P03452); assay: native gel or EMSA

Substance: purified vaccine protein with HA from influenza A/PR/8/1934 (H1N1), with the C-terminal foldon trimerization domain (from UniProt P03452)
- stoichiometry N [1]: 3
- stoichiometry N [2]: 3
